Results taken from the supplement of paper PMC9112550, “Optimization of the antimicrobial peptide Bac7 by deep mutational scanning” (BMC Biology, 2022).

System: Escherichia coli TOP10
Assay: shrunken log2 fold change of peptide-encoding DNA abundance (4.5 h post-induction vs induction); higher = less antimicrobial activity (less host growth inhibition)
Settings: time post-induction: 4.5 h; library: site-saturation at positions 5, 18, 19, 20
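Further: peptides expressed intracellularly from a pBAD plasmid library in pooled LB shake-flask culture, induced with 0.3% L-arabinose, DNA abundance read by NGS, three biological replicates, DESeq2 with apeglm shrinkage.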

| Sequence | shrunken log2 fold change |
| --- | --- |
| RRIRKRPPRLPRPRPRPGVKPRP | 0.0127 |
| RRIRDRPPRLPRPRPRPSWPPRP | 0.399 |
| RRIRHRPPRLPRPRPRPTERPRP | 0.18 |
| RRIRKRPPRLPRPRPRPLEIPRP | 0.281 |
| RRIRARPPRLPRPRPRPTGHPRP | -0.132 |
| RRIRERPPRLPRPRPRPHDCPRP | -0.715 |
| RRIRSRPPRLPRPRPRPLIRPRP | -0.196 |
| RRIRLRPPRLPRPRPRPGLTPRP | -0.00899 |
| RRIRIRPPRLPRPRPRPSHEPRP | -0.159 |
| RRIRNRPPRLPRPRPRPHQDPRP | -0.297 |
| RRIRRRPPRLPRPRPRPLPYPRP | -0.0149 |
| RRIRFRPPRLPRPRPRPDKSPRP | 0.053 |
| RRIRHRPPRLPRPRPRPVSFPRP | 0.00493 |
| RRIRYRPPRLPRPRPRPNWIPRP | -0.312 |
| RRIRARPPRLPRPRPRPKKTPRP | -0.0919 |
| RRIRHRPPRLPRPRPRPMMFPRP | -0.18 |
| RRIRLRPPRLPRPRPRPEDMPRP | 0.0524 |
| RRIRYRPPRLPRPRPRPSCIPRP | -0.118 |
| RRIRIRPPRLPRPRPRPIVIPRP | -0.103 |
| RRIRSRPPRLPRPRPRPIIDPRP | -0.178 |
| RRIRKRPPRLPRPRPRPREHPRP | 0.0968 |
| RRIRIRPPRLPRPRPRPEQSPRP | 0.168 |
| RRIRRRPPRLPRPRPRPSLSPRP | 2.85 |
| RRIRTRPPRLPRPRPRPRCSPRP | -0.262 |
| RRIRYRPPRLPRPRPRPLGYPRP | -0.162 |

| Sequence | shrunken log2 fold change |
| --- | --- |
| RRIRWRPPRLPRPRPRPECWPRP | 1.29 |
| RRIRLRPPRLPRPRPRPPDMPRP | -0.111 |
| RRIRFRPPRLPRPRPRPEQCPRP | 0.285 |
| RRIRKRPPRLPRPRPRPAAKPRP | 0.0103 |
| RRIRKRPPRLPRPRPRPFANPRP | -0.0377 |
| RRIRQRPPRLPRPRPRPYMYPRP | -0.0364 |
| RRIRVRPPRLPRPRPRPELTPRP | 0.149 |
| RRIRCRPPRLPRPRPRPIWLPRP | 0.122 |
| RRIRSRPPRLPRPRPRPHNEPRP | -0.382 |
| RRIRVRPPRLPRPRPRPPNPPRP | 0.379 |
| RRIRTRPPRLPRPRPRPLEHPRP | 0.104 |
| RRIRRRPPRLPRPRPRPLRLPRP | 0.59 |
| RRIRERPPRLPRPRPRPWARPRP | -0.0915 |
| RRIRCRPPRLPRPRPRPHMFPRP | -0.348 |
| RRIRDRPPRLPRPRPRPRMNPRP | -0.168 |
| RRIRERPPRLPRPRPRPERCPRP | 0.125 |
| RRIRMRPPRLPRPRPRPACPPRP | 0.262 |
| RRIRERPPRLPRPRPRPEHNPRP | -0.203 |
| RRIRIRPPRLPRPRPRPIMFPRP | -0.314 |
| RRIRPRPPRLPRPRPRPTVTPRP | -0.0401 |
| RRIRSRPPRLPRPRPRPNVWPRP | 0.109 |
| RRIRVRPPRLPRPRPRPMMGPRP | 0.00748 |
| RRIRLRPPRLPRPRPRPIYAPRP | 0.111 |
| RRIRRRPPRLPRPRPRPFDMPRP | -0.0228 |
| RRIRHRPPRLPRPRPRPQNVPRP | -0.0702 |

| Sequence | shrunken log2 fold change |
| --- | --- |
| RRIRLRPPRLPRPRPRPTGTPRP | 0.104 |
| RRIRNRPPRLPRPRPRPIYFPRP | -0.767 |
| RRIRPRPPRLPRPRPRPEEEPRP | 0.163 |
| RRIRIRPPRLPRPRPRPYRCPRP | -0.0728 |
| RRIRRRPPRLPRPRPRPKCSPRP | 0.504 |
| RRIRPRPPRLPRPRPRPFEWPRP | -0.124 |
| RRIRSRPPRLPRPRPRPPPWPRP | 0.651 |
| RRIRRRPPRLPRPRPRPGMPPRP | 0.463 |
| RRIRMRPPRLPRPRPRPERVPRP | 2.69 |
| RRIRHRPPRLPRPRPRPYEVPRP | 0.028 |
| RRIRKRPPRLPRPRPRPNMLPRP | -0.0107 |
| RRIRKRPPRLPRPRPRPAWQPRP | 0.714 |
| RRIRRRPPRLPRPRPRPFFMPRP | -0.0188 |
| RRIRQRPPRLPRPRPRPSETPRP | -0.216 |
| RRIRHRPPRLPRPRPRPESLPRP | -0.245 |
| RRIRARPPRLPRPRPRPEPSPRP | 1.22 |
| RRIRSRPPRLPRPRPRPHNTPRP | -0.337 |
| RRIRPRPPRLPRPRPRPPTEPRP | 0.306 |
| RRIRRRPPRLPRPRPRPRPLPRP | 0.559 |
| RRIRMRPPRLPRPRPRPYTNPRP | -0.165 |
| RRIRLRPPRLPRPRPRPDKIPRP | -0.494 |
| RRIRTRPPRLPRPRPRPMCDPRP | 0.0157 |
| RRIRCRPPRLPRPRPRPVAEPRP | 0.417 |
| RRIRERPPRLPRPRPRPGNVPRP | -0.197 |
| RRIRSRPPRLPRPRPRPCSNPRP | -0.0564 |

| Sequence | shrunken log2 fold change |
| --- | --- |
| RRIRTRPPRLPRPRPRPTHMPRP | -0.0271 |
| RRIRPRPPRLPRPRPRPRNMPRP | -0.126 |
| RRIRMRPPRLPRPRPRPGDEPRP | 0.818 |
| RRIRGRPPRLPRPRPRPRQSPRP | 0.647 |
| RRIRPRPPRLPRPRPRPDGFPRP | -0.0011 |
| RRIRMRPPRLPRPRPRPDQIPRP | 0.0408 |
| RRIRLRPPRLPRPRPRPYNCPRP | -0.053 |
| RRIRFRPPRLPRPRPRPIDQPRP | -0.296 |
| RRIRCRPPRLPRPRPRPDMDPRP | -0.00476 |
| RRIRQRPPRLPRPRPRPECPPRP | 0.184 |
| RRIRERPPRLPRPRPRPNLYPRP | -0.022 |
| RRIRGRPPRLPRPRPRPNWQPRP | 0.0611 |
| RRIRLRPPRLPRPRPRPFWDPRP | 0.184 |
| RRIRPRPPRLPRPRPRPCIAPRP | 0.00774 |
| RRIRWRPPRLPRPRPRPLQWPRP | 0.346 |
| RRIRGRPPRLPRPRPRPRWPPRP | 0.973 |
| RRIRPRPPRLPRPRPRPPQPPRP | 0.441 |
| RRIRHRPPRLPRPRPRPRMWPRP | -0.237 |
| RRIRIRPPRLPRPRPRPMEAPRP | -0.0793 |
| RRIRDRPPRLPRPRPRPRGWPRP | 1.35 |
| RRIRQRPPRLPRPRPRPIGVPRP | -0.00783 |
| RRIRERPPRLPRPRPRPIYSPRP | -0.413 |
| RRIRNRPPRLPRPRPRPCIQPRP | 0.00396 |
| RRIRGRPPRLPRPRPRPVWRPRP | 1.21 |
| RRIRKRPPRLPRPRPRPCEGPRP | 0.0796 |

| Sequence | shrunken log2 fold change |
| --- | --- |
| RRIRMRPPRLPRPRPRPYIGPRP | -0.00926 |
| RRIRFRPPRLPRPRPRPFFEPRP | 0.0992 |
| RRIRRRPPRLPRPRPRPWFWPRP | 1.76 |
| RRIRNRPPRLPRPRPRPEVGPRP | 0.662 |
| RRIRRRPPRLPRPRPRPEQEPRP | 0.0308 |
| RRIRVRPPRLPRPRPRPSMTPRP | -0.175 |
| RRIRGRPPRLPRPRPRPARDPRP | 0.585 |
| RRIRPRPPRLPRPRPRPTVVPRP | 0.0581 |
| RRIRPRPPRLPRPRPRPCQDPRP | -0.006 |
| RRIRKRPPRLPRPRPRPLRLPRP | 1.16 |
| RRIRCRPPRLPRPRPRPLPSPRP | 0.214 |
| RRIRWRPPRLPRPRPRPHRTPRP | -0.168 |
| RRIRDRPPRLPRPRPRPMRDPRP | 0.131 |
| RRIRHRPPRLPRPRPRPSPPPRP | -0.0717 |
| RRIRHRPPRLPRPRPRPAKDPRP | -0.0214 |
| RRIRIRPPRLPRPRPRPIAVPRP | -0.0939 |
| RRIRWRPPRLPRPRPRPTRWPRP | 0.573 |
| RRIRWRPPRLPRPRPRPPYVPRP | -0.284 |
| RRIRMRPPRLPRPRPRPKPCPRP | 0.366 |
| RRIRCRPPRLPRPRPRPWCNPRP | -0.412 |
| RRIRARPPRLPRPRPRPCQEPRP | 0.094 |
| RRIRSRPPRLPRPRPRPRRSPRP | 0.181 |
| RRIRFRPPRLPRPRPRPEAFPRP | 1.82 |
| RRIRARPPRLPRPRPRPEVAPRP | 0.214 |
| RRIRLRPPRLPRPRPRPTAGPRP | 0.53 |

| Sequence | shrunken log2 fold change |
| --- | --- |
| RRIRGRPPRLPRPRPRPLAFPRP | 0.487 |
| RRIRFRPPRLPRPRPRPIGYPRP | -0.363 |
| RRIRIRPPRLPRPRPRPKNLPRP | -0.0922 |
| RRIRNRPPRLPRPRPRPINNPRP | -0.652 |
| RRIRTRPPRLPRPRPRPTRRPRP | 0.71 |
| RRIRCRPPRLPRPRPRPECCPRP | 0.401 |
| RRIRVRPPRLPRPRPRPVFTPRP | -0.14 |
| RRIRFRPPRLPRPRPRPIRGPRP | -0.0057 |
| RRIRGRPPRLPRPRPRPTDCPRP | 0.275 |
| RRIRSRPPRLPRPRPRPQCEPRP | 0.00747 |
| RRIRYRPPRLPRPRPRPILFPRP | -0.945 |
| RRIRARPPRLPRPRPRPTNAPRP | 0.434 |
| RRIRERPPRLPRPRPRPCIMPRP | -0.397 |
| RRIRVRPPRLPRPRPRPFCDPRP | -0.218 |
| RRIRTRPPRLPRPRPRPTWWPRP | 0.538 |
| RRIRTRPPRLPRPRPRPMHVPRP | -0.0197 |
| RRIRTRPPRLPRPRPRPFSNPRP | -0.405 |
| RRIRTRPPRLPRPRPRPPSMPRP | 0.13 |
| RRIRPRPPRLPRPRPRPPTAPRP | 0.189 |
| RRIRHRPPRLPRPRPRPNIQPRP | -0.141 |
| RRIRTRPPRLPRPRPRPLCAPRP | 0.0615 |
| RRIRDRPPRLPRPRPRPRGTPRP | -0.217 |
| RRIRIRPPRLPRPRPRPMNCPRP | 0.0904 |
| RRIRLRPPRLPRPRPRPEKHPRP | -0.262 |
| RRIRWRPPRLPRPRPRPGESPRP | 0.159 |
